Targets include N384AzK (human); N384AzK-CR110 (human); M252AzK-CR110 (human); S254AzK (human); Q311AzK (human); L309AzK-mPEG (human); Q311AzK-mPEG (human); N384AzK-mPEG (human); K248AzK (human); M252AzK-mPEG (human); M252AzK (human); N434AzK (human); K288AzK-CR110 (human); K288AzK (human); S254AzK-CR110 (human); N286AzK-mPEG (human); L309AzK (human); Q311AzK-CR110 (human); K248AzK-mPEG (human); L309AzK-CR110 (human).

Common to all, as to assay: SPR; Biacore 3000; antibodies immobilised on a CM5 chip by amine coupling at ~3000 RU; huFcRn flowed at 5 μl/min for 50 min, 19.5 nM to 10 μM, in PBS pH 5.8 with 5 mM EDTA and 0.05% Tween 20; steady-state fit
Assay [1] deals with wild-type antibody (human).

“Recombinant human FcRn (from UniProt P55899 24-297; P61769 21-119) (receptor)”: the Kd (usually the constant that tells how readily two partners part at equilibrium) was found to be 0.565 µM in the assay with N384AzK (human); 0.702 µM with N384AzK-CR110 (human); 2.06 µM in the assay with M252AzK-CR110 (human); 0.465 µM with S254AzK (human); 0.323 µM with Q311AzK (human); 3.27 µM in the assay with L309AzK-mPEG (human). The dissociation constant (Kd) with Q311AzK-mPEG (human) amounted to 3.87 µM; in assay [1] it was 0.538 µM; with N384AzK-mPEG (human) it was 0.756 µM; with K248AzK (human) it was 0.378 µM; with M252AzK-mPEG (human), 3.58 µM; in the assay with M252AzK (human), 0.249 µM. The dissociation constant Kd is 0.734 µM with N434AzK (human); 0.558 µM in the assay with K288AzK-CR110 (human); 0.418 µM with K288AzK (human); 2.87 µM in the assay with S254AzK-CR110 (human); 2.83 µM in the assay with N286AzK-mPEG (human); 0.437 µM with L309AzK (human). The Kd was determined as 2.05 µM in the assay with Q311AzK-CR110 (human), 0.907 µM with K248AzK-mPEG (human) and 2.04 µM in the assay with L309AzK-CR110 (human).

The record behind these values is paper PMC5437253.
